Measurements reported in patent US20100040635A1.
Numbering of substitutions follows the chain as printed.

B1: Antibody 4 (antibody, V domains shown)
VH: QVQLQESGPGLVKPSETLSLTCTVSGYSFDSGYYWGWLRQPPGKGLEWIGSIYHSRNTYYNPSLKSRVTISVDTSKNQFSLQLSSVTAADTAVYYCARGTWYSSNLRYWFDPWGKGTL
VL: NFMLTQPHSVSESPGKTVTISCTGSGGNIARNYVQWYQQRPGSAPVTVILEDDKRPSGIPDRFSGSIDRSSNSASLTISGLRTEDEALYYCQSYDDSDLVVFGGGTKLT
B2: Antibody 2 (antibody, V domains shown)
VH: QVQLVQSGAEVKKPGSSVKVSCKTSGGTFSSYAVTWVRQAPGQGLEWMGGIIGMFGTTNYAQKFQGRVTITADELTSTAYMELSSLRSEDTAVYYCARGSYYYESSLDYWGRGTL
VL: ETTLTQSPATLSVSPGERATLSCRASQSVSRNLAWYQQKPGQAPRLLIYGASSRATGIPDRFSGSGSGTDFTLTISRLEPEDFAVYYCQQYGSSSITFGQGTRLEIKR
B3: Antibody 1 (antibody, V domains shown)
VH: B2 VH with K19R, V68L, L75M, S105T, S106T
VL: ETTLTQSPGTLSLSPGERATLSCRVSQSVSSNYLAWYQQKPGQAPRLLIYGASSRATGIPDRFSGSGSGTDFTLTISRLEPEDFAVYYCQQYGTSPRAFGHGTKVEIKR
B4: Antibody 3 (antibody, V domains shown)
V domain 1: B2 VH with Q1E, G50A, E89D, R112K
V domain 2: QSVLTQPPSVSGAPGQRVTISCGGSRSNIGAGYDVHWYQQFPGTAPKVVIYGNNNRPSGVPDRFSGSKSGTSASLAITGLQAEDEANYYCQSYDTNLGGSIFGGGTQVTVL

Key:
[1] = target: H1 hemagglutinin of influenza A/New Caledonia/20/99 (H1N1) (influenza A virus H1N1 A/New Caledonia/20/99); experiment: cell-based or functional assay
[2] = target: H5 hemagglutinin of influenza A/Indonesia/5/05 (H5N1) (influenza A virus H5N1 A/Indonesia/5/05); experiment: cell-based or functional assay
[3] = target: H5 hemagglutinin of influenza A/Vietnam/1203/04 (H5N1) (influenza A virus H5N1 A/Vietnam/1203/04)
[4] = target: H5 hemagglutinin of influenza A/Vietnam/1203/04 (H5N1) (influenza A virus H5N1 A/Vietnam/1203/04); experiment: cell-based or functional assay
[5] = target: H5 hemagglutinin of influenza A/Turkey/65596/06 (H5N1) (influenza A virus H5N1 A/Turkey/65596/06); experiment: cell-based or functional assay

Binder | Minimum inhibitory concentrations required to neutralize virus [1] [mg/L] | Minimum inhibitory concentrations required to neutralize virus [2] [mg/L] | Neutralization (MIC), H5N1 Vietnam 1203 virus, microneutralization [3] [mg/L] | Minimum inhibitory concentrations required to neutralize virus [4] [mg/L] | Minimum inhibitory concentrations required to neutralize virus [5] [mg/L]
B1 | > 333 | > 333 | – | – | –
B2 | – | 27 | 188 | 63 | 108
B3 | 9 | 9.3 | – | – | 9.3
B4 | – | 16 | 175 | – | 31
